The values that follow come from publication PMC7282810, “Existence and functions of a kisspeptin neuropeptide signaling system in a non-chordate deuterostome species” (eLife, 2020).

In assay [1] the test system is cultured oocytes of sea cucumber. Put plainly: ERK1/2 phosphorylation (western blot) in cultured ovary / oocytes of sea cucumber. Type of assay: cell-based, Apostichopus japonicus. The following applies: pep234 1.0 μM, 4-hr pre-treatment; DrKiss1-10 or AjKiss1b-10 administrated cells. As to the method:
To examine the phosphorylation of ERK, cells that expressed AjKissr1/2 or other GPR54s were incubated for the indicated times with different concentrations of kisspeptins. Subsequently, cells were lysed with lysis buffer (Beyotime) that contained protease inhibitor (Roche) at 4°C for 30 min on a rocker and then scraped. Proteins were then electrophoresed on a 10% SDS polyacrylamide gel and transferred to polyvinylidene difluoride (PVDF) membranes. Membranes were blocked with 5% skimmed milk, then probed with rabbit anti-phospho-ERK1/2(Thr^202/Tyr^204) antibody (1:2000; Cell Signaling Technology), followed by detection using HRP-conjugated goat anti-rabbit IgG (Beyotime). Blots were stripped and reprobed using anti-ERK1/2 antibody (1:2000; Cell Signaling Technology) as a control for protein loading.
(§1) For in vitro experiments, the ovary and respiratory tree tissues were cut into small pieces of approximately 1 mm^3 and cultured in Leibovitz L-15 medium (HyClone) supplemented with 12.0 g/L NaCl, 0.32 g/L KCl, 0.36 g/L CaCl2, 0.6 g/L Na2SO4, 2.4 g/L MgCl2, 0.6 g/L glucose at 18°C in a humidified incubator ([Wang et al., 2020]). For ERK1/2 phosphorylation or immunofluorescence assays, samples were evaluated or fixed after 2 hr of ligand/PBS administration, with a 4 hr pre-treatment of pep234/PBS.
For orientation: A western blot detects proteins with antibodies after separation by electrophoresis.

Assay [2] shares this test system. The assay is described as follows: Immunofluorescence staining of p-ERK signal in cultured oocytes (confocal microscopy). The following applies: 4-hr pre-treatment with pep234. Format: cell-based, Apostichopus japonicus. As to the method:
Paraffin sections were baked at 60°C for 2–4 hr and placed in xylene for 15 min, twice. The slides were washed twice in 100% ethanol for 10 min each, then in 95% ethanol for 10 min, 85% ethanol for 5 min, 70% ethanol for 5 min, and 50% ethanol for 5 min, followed by washing with dH2O for 5 min, and finally washing with PBS for 5 min. Antigen unmasking was performed in sodium citrate buffer (pH 6) for 10 min at 97°C, and then cooled to room temperature. Endogenous peroxidases were blocked by 10 min incubation in 3.0% hydrogen peroxide. Nonspecific antigens were blocked by a 60 min incubation in 0.3% bovine serum albumin (BSA) in TBST. Slides were incubated with primary antibodies overnight after removing the blocking solution, followed by 2 hr incubation with fluorescein isothiocyanate (FITC)-conjugated secondary antibodies (FITC-labeled goat anti-rabbit IgG (H+L), Beyotime). […]
as §1

A further assay deals with T1, FLAG–AjKissR1 (Apostichopus japonicus).
T1 chain: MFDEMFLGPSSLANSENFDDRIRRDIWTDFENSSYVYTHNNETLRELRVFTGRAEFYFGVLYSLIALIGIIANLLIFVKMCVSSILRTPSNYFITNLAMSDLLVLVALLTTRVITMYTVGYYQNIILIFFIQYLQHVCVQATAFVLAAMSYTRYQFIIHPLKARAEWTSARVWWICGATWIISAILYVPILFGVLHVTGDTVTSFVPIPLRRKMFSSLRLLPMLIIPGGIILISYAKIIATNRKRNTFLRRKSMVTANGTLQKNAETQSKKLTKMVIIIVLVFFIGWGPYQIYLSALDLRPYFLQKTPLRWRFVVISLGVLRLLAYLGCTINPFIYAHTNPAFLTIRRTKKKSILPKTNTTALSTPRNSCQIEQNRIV
The assay is described as follows: competition with 1.0 uM FITC-AjKiss1a.

The target in assay [3] is FLAG–AjKissR2 (Apostichopus japonicus). The assay is described as follows: flow cytometry on cells; ligand competition: 1.0 uM FITC-AjKiss1a with unlabeled kisspeptins at the indicated concentrations on HEK293 cells expressing FLAG-AjKissR1 or FLAG-AjKissR2; on ice 60-90 min; PBS with 0.2% BSA; FITC fluorescence as percentage of total binding. For orientation: Flow cytometry measures light scatter and fluorescence of single cells or particles in a stream.

Assay [4] deals with FLAG–AjKissR1 (Apostichopus japonicus).
A further assay concerns the target T2, FLAG–AjKissR2 (Apostichopus japonicus).
T2 chain: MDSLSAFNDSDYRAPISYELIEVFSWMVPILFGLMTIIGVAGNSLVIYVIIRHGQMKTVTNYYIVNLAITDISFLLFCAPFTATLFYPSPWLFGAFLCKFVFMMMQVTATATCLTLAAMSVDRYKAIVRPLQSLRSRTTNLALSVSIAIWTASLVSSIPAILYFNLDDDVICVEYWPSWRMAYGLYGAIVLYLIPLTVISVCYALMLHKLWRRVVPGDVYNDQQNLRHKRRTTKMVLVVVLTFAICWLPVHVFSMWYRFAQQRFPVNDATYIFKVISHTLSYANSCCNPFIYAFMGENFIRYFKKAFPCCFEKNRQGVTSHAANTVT
The assay is described as follows: competition with 1.0 uM FITC-AjKiss1a.

Assay [5] has as its target FLAG–AjKissR1 (Apostichopus japonicus). Put plainly: flow cytometry on cells; ligand competition: 1.0 uM FITC-AjKiss1a with unlabeled kisspeptins at the indicated concentrations on HEK293 cells expressing FLAG-AjKissR1 or FLAG-AjKissR2; on ice 60-90 min; PBS with 0.2% BSA; FITC fluorescence as percentage of total binding.

Bridges are numbered along the chain shown (N, C = ends). Where no end group is shown, it is not given here. [ ]: non-standard residue; d: D form.

For the molecule “Ac-[dA]NWNGFG[dW]RF-NH2 [pep234, vertebrate kisspeptin antagonist]”, the “Block of kisspeptin-induced ERK phosphorylation signal, western blot (in words)” value in assay [1] is listed as “blocked”. Moreover, the “Inhibition of AjKiss1b-10-induced p-ERK signal in oocytes, confocal microscopy (in words)” value in assay [2] was “inhibition”.

B1: AjKiss1a (C-terminal amidated) (peptide)
peptide: AGSLDCLEASCEDVERRGRQPNRNAHYRTLPF-NH2
modifications: disulfide 6-11; N-terminus assumed
SMILES: CC(C)C[C@H](NC(=O)[C@H](CO)NC(=O)CNC(=O)[C@H](C)N)C(=O)N[C@@H](CC(=O)O)C(=O)N[C@H]1CSSC[C@@H](C(=O)N[C@@H](CCC(=O)O)C(=O)N[C@@H](CC(=O)O)C(=O)N[C@H](C(=O)N[C@@H](CCC(=O)O)C(=O)N[C@@H](CCCNC(=N)N)C(=O)N[C@@H](CCCNC(=N)N)C(=O)NCC(=O)N[C@@H](CCCNC(=N)N)C(=O)N[C@@H](CCC(N)=O)C(=O)N2CCC[C@H]2C(=O)N[C@@H](CC(N)=O)C(=O)N[C@@H](CCCNC(=N)N)C(=O)N[C@@H](CC(N)=O)C(=O)N[C@@H](C)C(=O)N[C@@H](Cc2c[nH]cn2)C(=O)N[C@@H](Cc2ccc(O)cc2)C(=O)N[C@@H](CCCNC(=N)N)C(=O)N[C@H](C(=O)N[C@@H](CC(C)C)C(=O)N2CCC[C@H]2C(=O)N[C@@H](Cc2ccccc2)C(N)=O)[C@@H](C)O)C(C)C)NC(=O)[C@H](CO)NC(=O)[C@H](C)NC(=O)[C@H](CCC(=O)O)NC(=O)[C@H](CC(C)C)NC1=O
As to B1, the IC50 in the assay with FLAG–AjKissR1 turned out to be 568 nM; in assay [3], 95.2 nM.

As to SAVKNKNKSRARPPLLPF-NH2 [AjKiss1b (C-terminal amidated)], in assay [4], the EC50 of intracellular Ca2+ mobilization (Fura-2/AM) in HEK293 cells expressing FLAG-AjKissR1 is 8.06 nM. In addition, the figures for the IC50 (in the assay with FLAG–AjKissR2; in assay [5]) were 1250 nM and 353 nM, respectively.

For orientation: IC50 means the concentration at which inhibition is half-maximal.
